Reference: US12564623B2, “Methods and compositions for treating cancer” (The University of Chicago, priority 2017, dated 2026)

Key:
[1] = target: T1, CD95 (Homo sapiens, UniProt P25445); experiment: CD95 loss and immunoreactivity in ELANE-treated cancer cells; format: cell-based; design: endogenous in cells; host or cells: Mel888 melanoma cells
T1 sequence (P25445 26-335): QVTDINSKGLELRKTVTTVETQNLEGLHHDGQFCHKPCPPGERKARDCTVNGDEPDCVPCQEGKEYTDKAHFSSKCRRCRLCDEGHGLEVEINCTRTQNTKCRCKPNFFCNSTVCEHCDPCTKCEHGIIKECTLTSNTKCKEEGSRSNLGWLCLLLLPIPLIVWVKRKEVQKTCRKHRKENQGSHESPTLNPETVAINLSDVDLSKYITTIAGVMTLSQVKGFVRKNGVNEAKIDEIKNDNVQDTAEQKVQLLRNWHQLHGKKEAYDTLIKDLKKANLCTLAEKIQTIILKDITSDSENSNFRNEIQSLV
Protocol: ELANE lowers CD95 levels in cancer cells and reduced CD95 levels are associated with apoptosis. (FIG. 8A) Recombinant proteins (1 μg) corresponding to full length CD95 (FL-CD95), N-terminal domain of CD95 (amino acids 1-173; N-CD95), or C-terminal domain of CD95 (amino acids 157-320; C-CD95) were inbuated with ELANE (0.05 μg) or vehicle (Veh) for 2 hrs at 37° C. Degradation was assessed by SDS-PAGE followed by coomassie blue staining. […] (FIG. 8C) Cancer cells were treated with ELANE (50 nM) for 1 hr, fixed in 10% formalin, and stained with N- or C-terminal specific anti-CD95 antibodies (green). Hoechst 33342 solution was used for nuclear staining (blue). Images were taken under 40×.
ELANE selectively cleaves the C-terminal domain of CD95. The CD95 pathway is essential for the survival of a wide range of cancer cells, but largely dispensable for normal cell survival (Adachi et al., Nat. Genet., 1995; Karray et al., J. Immunol., 2004). CD95 function can be modulated by proteolysis (Strand et al., Oncogene, 2004). […] Degradation was assessed by SDS-PAGE followed by staining with coomassie blue. […] Mel888 cancer cells were treated with ELANE (50 nM) for various times, and CD95 degradation was assessed by western blot analysis with a C-terminal specific anti-CD95 antibody.

[2] = tested on: MDA-MB-231 cells; experiment: Cancer cell killing, Calcein AM staining; format: cell-based, human

B1: neutrophil elastase (protein, listed as Homo sapiens)
chain: MTLGRRLACLFLACVLPALLLGGTALASEIVGGRRARPHAWPFMVSLQLRGGHFCGATLIAPNFVMSAAHCVANVNVRAVRVVLGAHNLSRREPTRQVFAVQRIFENGYDPVNLLNDIVILQLNGSATINANVQVAQLPAQGRRLGNGVQCLAMGWGLLGRNRGIASVLQELNVTVVTSLCRRSNVCTLVRGRQAGVCFGDSGSPLVCNGLIHGIASFVRGGCASGLYPDAFAPVAQFVNWIDSIIQRSEDNPCPHPRDPDPASRTH
notes: purified native ELANE
CD95 immunoreactivity of cancer cells ([1]; 50 nM, 1 hr): lose immunoreactivity to a C-terminal specific CD95 antibody, but not to an N-terminal specific CD95 antibody | CD95 at the cell surface ([1]; incubating cancer cells with ELANE): CD95 loss from the cell surface | cancer cell killing activity of purified protein ([2]; increasing doses, 5h): highest cancer cell killing activity | toxicity to cancer cells, ELANE versus PPE ([2]; various doses, 6 h): equally toxic to cancer cells
